Laboratory results: publication PMC2830092

Biological target: FLAG-Pen-2 (human) (UniProt Q9NZ42)
Test: STEM mass measurement

Sequence of UniProt Q9NZ42 (Q9NZ42 whole entry): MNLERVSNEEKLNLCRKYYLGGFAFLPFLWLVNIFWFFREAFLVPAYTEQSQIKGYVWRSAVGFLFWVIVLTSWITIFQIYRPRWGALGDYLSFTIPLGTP

stoichiometry N: 1
Substance: Aph1α2-HA (from UniProt Q96BI3 1-265) (natural protein)
